Data taken from article PMC4995097, “Talin-KANK1 interaction controls the recruitment of cortical microtubule stabilizing complexes to focal adhesions” (eLife, 2016).

Test system: HA-KANK1
Test: Streptavidin pull down of BioGFP-talin1 constructs with HA-KANK1, Western blot
Format: binding
Conditions: HEK293T cells
Description: BioGFP-tagged KANK1 mutants were constructed using PCR and pBioGFP-C1 vector as previously described ([van der Vaart et al., 2013]). Rescue constructs for BioGFP-tagged KANK1 were either based on the version previously described ([van der Vaart et al., 2013]) or a version obtained by PCR-based mutagenesis of the sequence […] to […]. mCherry-tagged paxillin construct was made by replacing GFP from pQC-GPXN ([Bouchet et al., 2011]) by mCherry (pmCherry-C1, Clontech). TagRFP-tagged paxillin construct was made by PCR-based amplification and cloning in pTagRFP-T-C1 (kind gift from Y. Mimori-Kiyosue, Riken Institute, Japan). HA-tagged KANK1 construct was generated by cloning KANK1 coding sequence into pMT2-SM-HA (gift of C. Hoogenraad, Utrecht University, The Netherlands). pLVX-IRES-Neo (pLVIN) vectors was constructed by cloning the IRES-neomycin resistance cassette from the pQCXIN plasmid (Clontech) into the pLVX-IRES-Puro plasmid (Clontech). […]
Streptavidin-based pull down assays of biotinylated proteins expressed using pBioGFP-C1 constructs transfected in HEK293T cells was performed and analyzed as previously described ([van der Vaart et al., 2013]). […] For RP-nanoLC-MS/MS, samples were resuspended in 10% formic acid (FA) / 5% DMSO and was analyzed using a Proxeon Easy-nLC100 (Thermo Scientific) connected to an Orbitrap Q-Exactive mass spectrometer. […]

B1: KANK1: full-length KANK1, BioGFP- or GFP-tagged; siRNA-resistant version for rescue (protein)
chain: MAHTTKVNGSASGKAGDILSGDQDKEQKDPYFVETPYGYQLDLDFLKYVDDIQKGNTIKRLNIQKRRKPSVPCPEPRTTSGQQGIWTSTESLSSSNSDDNKQCPNFLIARSQVTSTPISKPPPPLETSLPFLTIPENRQLPPPSPQLPKHNLHVTKTLMETRRRLEQERATMQMTPGEFRRPRLASFGGMGTTSSLPSFVGSGNHNPAKHQLQNGYQGNGDYGSYAPAAPTTSSMGSSIRHSPLSSGISTPVTNVSPMHLQHIREQMAIALKRLKELEEQVRTIPVLQVKISVLQEEKRQLVSQLKNQRAASQINVCGVRKRSYSAGNASQLEQLSRARRSGGELYIDYEEEEMETVEQSTQRIKEFRQLTADMQALEQKIQDSSCEASSELRENGECRSVAVGAEENMNDIVVYHRGSRSCKDAAVGTLVEMRNCGVSVTEAMLGVMTEADKEIELQQQTIESLKEKIYRLEVQLRETTHDREMTKLKQELQAAGSRKKVDKATMAQPLVFSKVVEAVVQTRDQMVGSHMDLVDTCVGTSVETNSVGISCQPECKNKVVGPELPMNWWIVKERVEMHDRCAGRSVEMCDKSVSVEVSVCETGSNTEESVNDLTLLKTNLNLKEVRSIGCGDCSVDVTVCSPKECASRGVNTEAVSQVEAAVMAVPRTADQDTSTDLEQVHQFTNTETATLIESCTNTCLSTLDKQTSTQTVETRTVAVGEGRVKDINSSTKTRSIGVGTLLSGHSGFDRPSAVKTKESGVGQININDNYLVGLKMRTIACGPPQLTVGLTASRRSVGVGDDPVGESLENPQPQAPLGMMTGLDHYIERIQKLLAEQQTLLAENYSELAEAFGEPHSQMGSLNSQLISTLSSINSVMKSASTEELRNPDFQKTSLGKITGNYLGYTCKCGGLQSGSPLSSQTSQPEQEVGTSEGKPISSLDAFPTQEGTLSPVNLTDDQIAAGLYACTNNESTLKSIMKKKDGNKDSNGAKKNLQFVGINGGYETTSSDDSSSDESSSSESDDECDVIEYPLEEEEEEEDEDTRGMAEGHHAVNIEGLKSARVEDEMQVQECEPEKVEIRERYELSEKMLSACNLLKNTINDPKALTSKDMRFCLNTLQHEWFRVSSQKSAIPAMVGDYIAAFEAISPDVLRYVINLADGNGNTALHYSVSHSNFEIVKLLLDADVCNVDHQNKAGYTPIMLAALAAVEAEKDMRIVEELFGCGDVNAKASQAGQTALMLAVSHGRIDMVKGLLACGADVNIQDDEGSTALMCASEHGHVEIVKLLLAQPGCNGHLEDNDGSTALSIALEAGHKDIAVLLYAHVNFAKAQSPGTPRLGRKTSPGPTHRGSFD
modifications: biotinylated on the Bio tag (by BirA); left off: biotinylation (Bio) tag, end not stated, kept | GFP, end not stated, kept
notes: full-length KANK1, BioGFP- or GFP-tagged; siRNA-resistant version for rescue
**Q.** Which “interaction of talin1 constructs with KANK1 (in words)” value does the source give for B1 here?
**A.** binds to the talin1 rod domain R7
